Results reported in PMC5537068, “Endoglucanase activity at a second site in Pyrococcus furiosus triosephosphate isomerase—Promiscuity or compensation for a metabolic handicap?” (FEBS Open Bio, 2017).

Legend:
[1] = target: the molecule itself; test: SEC; gel filtration chromatography in phosphate buffer
[2] = target: the molecule itself; test: AUC; sedimentation velocity, Tris buffer; data not shown; told in one sentence together with SDS/PAGE and gel filtration
[3] = target: the molecule itself; test: native gel or EMSA; native PAGE at 5, 7.5, 10, 12.5 and 15% acrylamide with HMW markers, Ferguson plot of molecular weight
[4] = target: the molecule itself; test: AUC; sedimentation velocity, phosphate buffer; data not shown; told in one sentence together with SDS/PAGE and gel filtration
[5] = target: the molecule itself; test: SDS/PAGE (zymogram); 12% SDS/PAGE under standard conditions, gel copolymerised with CM-cellulose; residual oligomers resist SDS and boiling; bands identified as PfuTIM by in-gel digestion and MALDI-TOF MS

B1: Pyrococcus furiosus triosephosphate isomerase (PfuTIM) (enzyme, UniProt P62002 1-228, looked up)
chain: MAKLKEPIIAINFKTYIEATGKRALEIAKAAEKVYKETGVTIVVAPQLVDLRMIAESVEIPVFAQHIDPIKPGSHTGHVLPEAVKEAGAVGTLLNHSENRMILADLEAAIRRAEEVGLMTMVCSNNPAVSAAVAALNPDYVAVEPPELIGTGIPVSKAKPEVITNTVELVKKVNPEVKVLCGAGISTGEDVKKAIELGTVGVLLASGVTKAKDPEKAIWDLVSGIIKE
notes: also called TPI; source: E. coli M15[pREP4], purified (Ni-NTA, gel filtration)
For B1, the “stoichiometry N” value [1] was 6, the “stoichiometry N” value [2] was 4 and the “stoichiometry N” value [3] was 8. The “stoichiometry N” value [4] was 3 and the “stoichiometry N” value [5] was 2.
